From patent publication US20140087995A1 (published 2014) come the findings set out here.

Numbered stars: 1 amine (or outer) side, 2 acyl side, 3 side chain; on linkers, the order of the positions; unused ones are H or OH. Bridge positions count the residues as written; N and C are the ends. Side chains are listed from the residue outwards. Ends that are not written are not given here. * marks the point of attachment. C20 diacid = O=C(O)CCCCCCCCCCCCCCCCCCC(=O)*; γGlu = O=C(O)[C@H](CCC(=O)[*:2])N[*:1]; AEEA = NCCOCCOCC(=O)O

B1: N^ε-[2-[2-[2-[[(4S)-4-carboxy-4-(19-carboxynonadecanoylamino)butanoyl]amino]ethoxy]ethoxy]acetyl]Lys[Arg1,Arg17,Pro21,Pro27,His35]-h-amylin (peptide)
peptide: K([AEEA-γGlu-C20 diacid])RCNTATCATQRLANFLRHSSPNFGAIPSSTNVGSHTY-NH2
modifications: disulfide 3-8; N-terminus assumed
SMILES: CC[C@H](C)[C@H](NC(=O)[C@H](C)NC(=O)CNC(=O)[C@H](Cc1ccccc1)NC(=O)[C@H](CC(N)=O)NC(=O)[C@@H]1CCCN1C(=O)[C@H](CO)NC(=O)[C@H](CO)NC(=O)[C@H](Cc1c[nH]cn1)NC(=O)[C@H](CCCNC(=N)N)NC(=O)[C@H](CC(C)C)NC(=O)[C@H](Cc1ccccc1)NC(=O)[C@H](CC(N)=O)NC(=O)[C@H](C)NC(=O)[C@H](CC(C)C)NC(=O)[C@H](CCCNC(=N)N)NC(=O)[C@H](CCC(N)=O)NC(=O)[C@@H](NC(=O)[C@H](C)NC(=O)[C@@H]1CSSC[C@H](NC(=O)[C@H](CCCNC(=N)N)NC(=O)[C@@H](N)CCCCNC(=O)COCCOCCNC(=O)CC[C@H](NC(=O)CCCCCCCCCCCCCCCCCCC(=O)O)C(=O)O)C(=O)N[C@@H](CC(N)=O)C(=O)N[C@@H]([C@@H](C)O)C(=O)N[C@@H](C)C(=O)N[C@@H]([C@@H](C)O)C(=O)N1)[C@@H](C)O)C(=O)N1CCC[C@H]1C(=O)N[C@@H](CO)C(=O)N[C@@H](CO)C(=O)N[C@H](C(=O)N[C@@H](CC(N)=O)C(=O)N[C@H](C(=O)NCC(=O)N[C@@H](CO)C(=O)N[C@@H](Cc1c[nH]cn1)C(=O)N[C@H](C(=O)N[C@@H](Cc1ccc(O)cc1)C(N)=O)[C@@H](C)O)C(C)C)[C@@H](C)O
notes: extended by one residue at the N-terminus; also called compound 45
B2: N^α1 N^α1-[(4S)-4-carboxy-4-[[(4S)-4-carboxy-4-(19-carboxynonadecanoylamino)butanoyl]amino]butanoyl]-[Glu14,Arg17,Pro21,Pro27]-h-amylin (peptide)
peptide: {C20 diacid-γGlu-γGlu}-KCNTATCATQRLAEFLRHSSPNFGAIPSSTNVGSNTY-NH2
modifications: disulfide 2-7
SMILES: CC[C@H](C)[C@H](NC(=O)[C@H](C)NC(=O)CNC(=O)[C@H](Cc1ccccc1)NC(=O)[C@H](CC(N)=O)NC(=O)[C@@H]1CCCN1C(=O)[C@H](CO)NC(=O)[C@H](CO)NC(=O)[C@H](Cc1c[nH]cn1)NC(=O)[C@H](CCCNC(=N)N)NC(=O)[C@H](CC(C)C)NC(=O)[C@H](Cc1ccccc1)NC(=O)[C@H](CCC(=O)O)NC(=O)[C@H](C)NC(=O)[C@H](CC(C)C)NC(=O)[C@H](CCCNC(=N)N)NC(=O)[C@H](CCC(N)=O)NC(=O)[C@@H](NC(=O)[C@H](C)NC(=O)[C@@H]1CSSC[C@H](NC(=O)[C@H](CCCCN)NC(=O)CC[C@H](NC(=O)CC[C@H](NC(=O)CCCCCCCCCCCCCCCCCCC(=O)O)C(=O)O)C(=O)O)C(=O)N[C@@H](CC(N)=O)C(=O)N[C@@H]([C@@H](C)O)C(=O)N[C@@H](C)C(=O)N[C@@H]([C@@H](C)O)C(=O)N1)[C@@H](C)O)C(=O)N1CCC[C@H]1C(=O)N[C@@H](CO)C(=O)N[C@@H](CO)C(=O)N[C@H](C(=O)N[C@@H](CC(N)=O)C(=O)N[C@H](C(=O)NCC(=O)N[C@@H](CO)C(=O)N[C@@H](CC(N)=O)C(=O)N[C@H](C(=O)N[C@@H](Cc1ccc(O)cc1)C(N)=O)[C@@H](C)O)C(C)C)[C@@H](C)O
notes: also called compound 15
B3: N^α1-[2-[2-[2-[[2-[2-[2-[[(4S)-4-carboxy-4-(19-carboxynonadecanoylamino)butanoyl]amino]ethoxy]ethoxy]acetyl]amino]ethoxy]ethoxy]acetyl]-[Glu14,Arg17,Pro21,Pro27 … (peptide)
peptide: KCNTATCATQRLAEFLRHSSPNFGAIPSSTNVGSNTY
modifications: C20 diacid-gGlu-2xOEG on the alpha amino group of the N-terminal residue; disulfide bridge Cys2-Cys7; C-terminal amide
notes: also called compound 19
B4: N^ε-[(4S)-4-carboxy-4-(19-carboxynonadecanoylamino)butanoyl]Lys[Arg1,Arg17,Pro21,Pro27,His35]-h-amylin (peptide)
peptide: K([γGlu-C20 diacid])RCNTATCATQRLANFLRHSSPNFGAIPSSTNVGSHTY-NH2
modifications: disulfide 3-8; N-terminus assumed
SMILES: CC[C@H](C)[C@H](NC(=O)[C@H](C)NC(=O)CNC(=O)[C@H](Cc1ccccc1)NC(=O)[C@H](CC(N)=O)NC(=O)[C@@H]1CCCN1C(=O)[C@H](CO)NC(=O)[C@H](CO)NC(=O)[C@H](Cc1c[nH]cn1)NC(=O)[C@H](CCCNC(=N)N)NC(=O)[C@H](CC(C)C)NC(=O)[C@H](Cc1ccccc1)NC(=O)[C@H](CC(N)=O)NC(=O)[C@H](C)NC(=O)[C@H](CC(C)C)NC(=O)[C@H](CCCNC(=N)N)NC(=O)[C@H](CCC(N)=O)NC(=O)[C@@H](NC(=O)[C@H](C)NC(=O)[C@@H]1CSSC[C@H](NC(=O)[C@H](CCCNC(=N)N)NC(=O)[C@@H](N)CCCCNC(=O)CC[C@H](NC(=O)CCCCCCCCCCCCCCCCCCC(=O)O)C(=O)O)C(=O)N[C@@H](CC(N)=O)C(=O)N[C@@H]([C@@H](C)O)C(=O)N[C@@H](C)C(=O)N[C@@H]([C@@H](C)O)C(=O)N1)[C@@H](C)O)C(=O)N1CCC[C@H]1C(=O)N[C@@H](CO)C(=O)N[C@@H](CO)C(=O)N[C@H](C(=O)N[C@@H](CC(N)=O)C(=O)N[C@H](C(=O)NCC(=O)N[C@@H](CO)C(=O)N[C@@H](Cc1c[nH]cn1)C(=O)N[C@H](C(=O)N[C@@H](Cc1ccc(O)cc1)C(N)=O)[C@@H](C)O)C(C)C)[C@@H](C)O
notes: extended by one residue at the N-terminus; also called compound 44
B5: N^-1-[(4S)-4-carboxy-4-(19-carboxynonadecanoylamino)butanoyl]-Gly[Arg1,Arg17,Pro21,Pro27,His35]-h-amylin (peptide)
peptide: {C20 diacid-γGlu}-GRCNTATCATQRLANFLRHSSPNFGAIPSSTNVGSHTY-NH2
modifications: disulfide 3-8
SMILES: CC[C@H](C)[C@H](NC(=O)[C@H](C)NC(=O)CNC(=O)[C@H](Cc1ccccc1)NC(=O)[C@H](CC(N)=O)NC(=O)[C@@H]1CCCN1C(=O)[C@H](CO)NC(=O)[C@H](CO)NC(=O)[C@H](Cc1c[nH]cn1)NC(=O)[C@H](CCCNC(=N)N)NC(=O)[C@H](CC(C)C)NC(=O)[C@H](Cc1ccccc1)NC(=O)[C@H](CC(N)=O)NC(=O)[C@H](C)NC(=O)[C@H](CC(C)C)NC(=O)[C@H](CCCNC(=N)N)NC(=O)[C@H](CCC(N)=O)NC(=O)[C@@H](NC(=O)[C@H](C)NC(=O)[C@@H]1CSSC[C@H](NC(=O)[C@H](CCCNC(=N)N)NC(=O)CNC(=O)CC[C@H](NC(=O)CCCCCCCCCCCCCCCCCCC(=O)O)C(=O)O)C(=O)N[C@@H](CC(N)=O)C(=O)N[C@@H]([C@@H](C)O)C(=O)N[C@@H](C)C(=O)N[C@@H]([C@@H](C)O)C(=O)N1)[C@@H](C)O)C(=O)N1CCC[C@H]1C(=O)N[C@@H](CO)C(=O)N[C@@H](CO)C(=O)N[C@H](C(=O)N[C@@H](CC(N)=O)C(=O)N[C@H](C(=O)NCC(=O)N[C@@H](CO)C(=O)N[C@@H](Cc1c[nH]cn1)C(=O)N[C@H](C(=O)N[C@@H](Cc1ccc(O)cc1)C(N)=O)[C@@H](C)O)C(C)C)[C@@H](C)O
notes: extended by one residue at the N-terminus; also called compound 47
B6: N^-1-[(4S)-4-carboxy-4-(19-carboxynonadecanoylamino)butanoyl]-Gly[Arg1,Arg17,Pro21,Pro27]-h-amylin (peptide)
peptide: {C20 diacid-γGlu}-GRCNTATCATQRLANFLRHSSPNFGAIPSSTNVGSNTY-NH2
modifications: disulfide 3-8
SMILES: CC[C@H](C)[C@H](NC(=O)[C@H](C)NC(=O)CNC(=O)[C@H](Cc1ccccc1)NC(=O)[C@H](CC(N)=O)NC(=O)[C@@H]1CCCN1C(=O)[C@H](CO)NC(=O)[C@H](CO)NC(=O)[C@H](Cc1c[nH]cn1)NC(=O)[C@H](CCCNC(=N)N)NC(=O)[C@H](CC(C)C)NC(=O)[C@H](Cc1ccccc1)NC(=O)[C@H](CC(N)=O)NC(=O)[C@H](C)NC(=O)[C@H](CC(C)C)NC(=O)[C@H](CCCNC(=N)N)NC(=O)[C@H](CCC(N)=O)NC(=O)[C@@H](NC(=O)[C@H](C)NC(=O)[C@@H]1CSSC[C@H](NC(=O)[C@H](CCCNC(=N)N)NC(=O)CNC(=O)CC[C@H](NC(=O)CCCCCCCCCCCCCCCCCCC(=O)O)C(=O)O)C(=O)N[C@@H](CC(N)=O)C(=O)N[C@@H]([C@@H](C)O)C(=O)N[C@@H](C)C(=O)N[C@@H]([C@@H](C)O)C(=O)N1)[C@@H](C)O)C(=O)N1CCC[C@H]1C(=O)N[C@@H](CO)C(=O)N[C@@H](CO)C(=O)N[C@H](C(=O)N[C@@H](CC(N)=O)C(=O)N[C@H](C(=O)NCC(=O)N[C@@H](CO)C(=O)N[C@@H](CC(N)=O)C(=O)N[C@H](C(=O)N[C@@H](Cc1ccc(O)cc1)C(N)=O)[C@@H](C)O)C(C)C)[C@@H](C)O
notes: extended by one residue at the N-terminus; also called compound 46

The target of the first assay is T1, human calcitonin receptor (human, UniProt P30988 25-474).
T1 construct: whole, on cells; also called hCTR; hCT
T1 sequence (looked up): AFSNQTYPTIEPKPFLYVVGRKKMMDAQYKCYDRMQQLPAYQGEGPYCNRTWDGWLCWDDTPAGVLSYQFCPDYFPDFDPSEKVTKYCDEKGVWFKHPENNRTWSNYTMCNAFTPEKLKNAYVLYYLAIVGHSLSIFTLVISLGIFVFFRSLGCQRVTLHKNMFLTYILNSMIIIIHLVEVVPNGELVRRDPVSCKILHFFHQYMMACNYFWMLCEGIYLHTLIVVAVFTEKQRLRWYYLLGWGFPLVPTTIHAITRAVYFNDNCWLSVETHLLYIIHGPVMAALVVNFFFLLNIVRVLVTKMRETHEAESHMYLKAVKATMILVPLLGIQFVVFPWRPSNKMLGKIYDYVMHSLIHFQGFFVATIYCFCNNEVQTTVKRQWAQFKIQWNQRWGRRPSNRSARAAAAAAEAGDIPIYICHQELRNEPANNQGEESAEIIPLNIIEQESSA
The assay is described as follows: ratio of IC50 at hCTR to IC50 at the human amylin receptor (reference). Summed up: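 IC₅₀ values were derived by one-site competition analysis of SPA counts. Cell membranes (35 ng/μL) with SPA beads were incubated with test compounds for 120 min at 25° C in Hepes buffer, pH 7.4, containing CaCl2, MgCl₂, OA and Tween20.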
On to B1, for which the “Ratio hCT/hAmylin binding” value came to 26.8.

On to B2, for which the “Ratio hCT/hAmylin binding” value turned out to be 26.

Turning to B3, the “Ratio hCT/hAmylin binding” value came to 36.7.

Consider B4, for which the “Ratio hCT/hAmylin binding” value stood at 17.7.

For B5, the “Ratio hCT/hAmylin binding” value was 44.9.

With B6, the “Ratio hCT/hAmylin binding” value worked out at 48.9.

The next assay deals with T1, human calcitonin receptor. The assay is described as follows: SPA competition binding, membranes with human calcitonin receptor, displacement of 125I-calcitonin (Assay VII). The gist of the method:
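BHK hCTR membranes 35 ng/μL + SPA beads 0.05 mg/well; buffer 50 mM Hepes pH 7.4, 1 mM CaCl2, 5 mM MgCl₂, 0.1% OA, 0.02% Tween20. 120 min, 25° C., shaking. Scintillation count; IC50 by one-site binding competition.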
For orientation: In a radioligand displacement assay an active substance lowers the binding of a labelled ligand.
Regarding B1, the half-maximal inhibitory concentration (IC50) was 14.8 nM.

In the case of B2, the IC50 was 15.5 nM.

Regarding B3, the IC50 was found to be 20.4 nM.

With B4, the half-inhibitory concentration (IC50) was determined as 4.87 nM.

As for B5, the IC50 was found to be 15.5 nM.

For B6, the half-inhibitory concentration (IC50) amounted to 9.53 nM.

For orientation: IC50 means the midpoint of a concentration-inhibition curve.
